B1: FAM164C (parent)
chain: YPHCTGISQQDPESDSQGQGNGLF
B2: C2CD2L (parent)
chain: EPAGSLRELGVWRSLLRLRATRAG
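Note: lentivirally expressed fusions sorted by FACS into six bins by GFP to DsRed ratio, PSI derived from sequencing read proportions per bin multiplied by bin number.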

Variants of B1 are the subject of one data set. Description: protein stability index of a GFP-peptide fusion (GPS, HEK-293T) (PSI 1-6); higher = more stable. Conditions: c terminus: a fixed tail appended.
As for YPHCTGISQQDPESDSQGQGNGIF, the protein stability index stood at 3.97.
For YPHCTGISQQDPESDSQGQGNGFF, the protein stability index is 3.15.
On the same count and under the same terms, for YPHCTGISQQDPESDSQGQGNGEF the value was 5.27; for YPHCTGISQQDPESDSQGQGNGGF, 4.99.
The same measure, in the same setting: for YPHCTGISQQDPESDSQGQGNGDF the value was 4.93.
Regarding YPHCTGISQQDPESDSQGQGNGCF, the protein stability index was 4.62.
Still for that read-out and setting: for YPHCTGISQQDPESDSQGQGNGSF the value was 4.6; for YPHCTGISQQDPESDSQGQGNGTF, 4.71.
On the same count and under the same terms, for YPHCTGISQQDPESDSQGQGNGNF the value was 4.38; for YPHCTGISQQDPESDSQGQGNGQF, 4.75.
The same measure, in the same setting: as for YPHCTGISQQDPESDSQGQGNGRF, the figure is 4.63.
For the variant YPHCTGISQQDPESDSQGQGNGVF, the protein stability index was determined as 3.87.
Same read-out and setting: for YPHCTGISQQDPESDSQGQGNGWF the value was 2.97.
Regarding YPHCTGISQQDPESDSQGQGNGPF, the protein stability index was found to be 4.48.
On the same count and under the same terms, as for YPHCTGISQQDPESDSQGQGNGYF, the figure is 4.26.
Same read-out and setting: for YPHCTGISQQDPESDSQGQGNGHF the value was 4.89; for YPHCTGISQQDPESDSQGQGNGAF, 4.35.
On the same count and under the same terms, for YPHCTGISQQDPESDSQGQGNGMF the value was 4.21; for YPHCTGISQQDPESDSQGQGNGKF, 4.76; for YPHCTGISQQDPESDSQGQGNGLH, 4.81.
For YPHCTGISQQDPESDSQGQGNGLD, the protein stability index is 4.44.
YPHCTGISQQDPESDSQGQGNGLA: the protein stability index turned out to be 3.89.
For YPHCTGISQQDPESDSQGQGNGLR, the protein stability index is 5.01.
Still for that read-out and setting: as for YPHCTGISQQDPESDSQGQGNGLC, the figure is 4.73.
Same read-out and setting: as for YPHCTGISQQDPESDSQGQGNGLV, the figure is 4.41; as for YPHCTGISQQDPESDSQGQGNGLQ, 5.
On the same count and under the same terms, as for YPHCTGISQQDPESDSQGQGNGLY, the figure is 3.87; as for YPHCTGISQQDPESDSQGQGNGLG, 4.82.
For YPHCTGISQQDPESDSQGQGNGLE, the protein stability index is 5.
On the same count and under the same terms, for YPHCTGISQQDPESDSQGQGNGLM the value was 4.55; for YPHCTGISQQDPESDSQGQGNGLL, 4.77; for YPHCTGISQQDPESDSQGQGNGLW, 2.23.
On the same count and under the same terms, for YPHCTGISQQDPESDSQGQGNGLK the value was 5.12.
The same measure, in the same setting: for YPHCTGISQQDPESDSQGQGNGLN the value was 5.06; for YPHCTGISQQDPESDSQGQGNGLI, 4.82.
Turning to YPHCTGISQQDPESDSQGQGNGLS, the protein stability index came out at 5.04.
The same measure, in the same setting: as for YPHCTGISQQDPESDSQGQGNGLT, the figure is 5.13; as for YPHCTGISQQDPESDSQGQGNGLP, 4.64.
Regarding YPHCTGISQQDPESDSQGQGNQLF, the protein stability index was determined as 3.44.
The same measure, in the same setting: as for YPHCTGISQQDPESDSQGQGNALF, the figure is 3.78; as for YPHCTGISQQDPESDSQGQGNWLF, 2.04.
On the same count and under the same terms, as for YPHCTGISQQDPESDSQGQGNDLF, the figure is 4.03; as for YPHCTGISQQDPESDSQGQGNVLF, 3.73.
On the same count and under the same terms, for YPHCTGISQQDPESDSQGQGNRLF the value was 3.78; for YPHCTGISQQDPESDSQGQGNTLF, 3.65.
YPHCTGISQQDPESDSQGQGNCLF: the protein stability index was 3.16.
With YPHCTGISQQDPESDSQGQGNSLF, the protein stability index amounted to 3.57.
Same read-out and setting: as for YPHCTGISQQDPESDSQGQGNYLF, the figure is 3.03; as for YPHCTGISQQDPESDSQGQGNPLF, 3.95; as for YPHCTGISQQDPESDSQGQGNHLF, 2.97.
Still for that read-out and setting: as for YPHCTGISQQDPESDSQGQGNFLF, the figure is 2.94; as for YPHCTGISQQDPESDSQGQGNLLF, 2.87.
Still for that read-out and setting: as for YPHCTGISQQDPESDSQGQGNELF, the figure is 3.76; as for YPHCTGISQQDPESDSQGQGNMLF, 2.96.
With YPHCTGISQQDPESDSQGQGNNLF, the protein stability index turned out to be 2.91.
The same measure, in the same setting: as for YPHCTGISQQDPESDSQGQGNILF, the figure is 3.22.
The same measure, in the same setting: as for YPHCTGISQQDPESDSQGQGNKLF, the figure is 3.96.
In the case of YPHCTGISQQDPESDSQGQGKGLF, the protein stability index turned out to be 3.77.
For YPHCTGISQQDPESDSQGQGQGLF, the protein stability index was 4.07.
As to YPHCTGISQQDPESDSQGQGYGLF, the protein stability index came to 3.02.
Still for that read-out and setting: as for YPHCTGISQQDPESDSQGQGLGLF, the figure is 3.41; as for YPHCTGISQQDPESDSQGQGPGLF, 3.99; as for YPHCTGISQQDPESDSQGQGHGLF, 3.75.
The same measure, in the same setting: for YPHCTGISQQDPESDSQGQGIGLF the value was 3.25; for YPHCTGISQQDPESDSQGQGRGLF, 3.55; for YPHCTGISQQDPESDSQGQGSGLF, 3.78.
Still for that read-out and setting: as for YPHCTGISQQDPESDSQGQGVGLF, the figure is 3.54; as for YPHCTGISQQDPESDSQGQGWGLF, 2.35; as for YPHCTGISQQDPESDSQGQGTGLF, 4.04.
For YPHCTGISQQDPESDSQGQGMGLF, the protein stability index came to 3.35.

In another data set the parent is B2. The data set is described as above. Particulars: c terminus: a fixed tail appended.
For the variant EPAGSLREEGVWRSLLRLRATRAG, the protein stability index is 3.3.
The same measure, in the same setting: for EPAGSLREPGVWRSLLRLRATRAG the value was 3.7; for EPAGSLREYGVWRSLLRLRATRAG, 4.48.
The same measure, in the same setting: as for EPAGSLREWGVWRSLLRLRATRAG, the figure is 2.37; as for EPAGSLREQGVWRSLLRLRATRAG, 2.77; as for EPAGSLREMGVWRSLLRLRATRAG, 2.07.
Take EPAGSLRECGVWRSLLRLRATRAG: the protein stability index turned out to be 3.04.
On the same count and under the same terms, as for EPAGSLRETGVWRSLLRLRATRAG, the figure is 2.92; as for EPAGSLREIGVWRSLLRLRATRAG, 1.71.
The same measure, in the same setting: as for EPAGSLRELGVWRSLLRCRATRAG, the figure is 2.67; as for EPAGSLRELGVWRSLLRRRATRAG, 3.54; as for EPAGSLRELGVWRSLLRIRATRAG, 2.65.
The same measure, in the same setting: for EPAGSLRELGVWHSLLRLRATRAG the value was 2.86; for EPAGSLRELGDWRSLLRLRATRAG, 3.74; for EPAGSLRELGRWRSLLRLRATRAG, 2.25.
For EPAGSLRELGKWRSLLRLRATRAG, the protein stability index stood at 3.37.
For EPAGSLRELGAWRSLLRLRATRAG, the protein stability index is 2.61.
Still for that read-out and setting: for EPAGSLRELGNWRSLLRLRATRAG the value was 3.27.
Still for that read-out and setting: as for EPAGSLRELGVWRSLLRLRATRAW, the figure is 3.29; as for EPAGSLRELGVWRSLLRLRATRAV, 2.25.
The same measure, in the same setting: as for EPAGSLRELGVWRSLLRLRATRAF, the figure is 2.11; as for EPAGSLRELGVWRSLLRLRATRAD, 2.66; as for EPAQSLRELGVWRSLLRLRATRAG, 3.42.
For EPACSLRELGVWRSLLRLRATRAG, the protein stability index came to 2.04.
